Assay results: article PMC4629891

Target: nucleolin (on the surface of live Huh7 cells) (UniProt P19338)
Assay: flow cytometry on live Huh7 cells
Settings: 5 mM MgCl2, whole-cell apparent Kd, Dulbecco's PBS, 4.5 g/L glucose, 5 mM MgCl2, 0.1 mg/mL yeast tRNA, 1 mg/mL BSA, on ice 30 min, 2x10^5 cells in 200 uL, pH not stated

Chain of UniProt P19338 (P19338 whole entry): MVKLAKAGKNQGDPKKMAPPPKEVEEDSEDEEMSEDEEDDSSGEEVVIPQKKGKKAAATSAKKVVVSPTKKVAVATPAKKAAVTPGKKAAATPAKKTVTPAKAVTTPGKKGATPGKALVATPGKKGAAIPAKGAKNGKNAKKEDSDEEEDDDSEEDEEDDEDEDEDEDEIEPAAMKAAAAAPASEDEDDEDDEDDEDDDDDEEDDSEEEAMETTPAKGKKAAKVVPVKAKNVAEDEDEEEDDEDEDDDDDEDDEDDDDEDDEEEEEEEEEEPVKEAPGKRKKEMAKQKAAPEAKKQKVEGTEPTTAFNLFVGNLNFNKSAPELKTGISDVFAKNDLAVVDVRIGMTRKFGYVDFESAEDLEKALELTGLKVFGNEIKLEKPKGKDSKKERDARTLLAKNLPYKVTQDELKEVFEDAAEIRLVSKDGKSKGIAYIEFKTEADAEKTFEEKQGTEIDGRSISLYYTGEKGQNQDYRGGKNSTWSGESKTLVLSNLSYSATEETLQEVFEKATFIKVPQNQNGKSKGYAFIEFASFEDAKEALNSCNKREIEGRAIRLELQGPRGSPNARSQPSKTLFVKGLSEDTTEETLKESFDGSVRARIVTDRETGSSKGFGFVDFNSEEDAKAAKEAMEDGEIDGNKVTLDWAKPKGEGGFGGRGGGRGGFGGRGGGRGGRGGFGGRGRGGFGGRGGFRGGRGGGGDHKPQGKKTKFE

Sequence	Kd	Kd (doxorubicin adducts via formaldehyde methylene links to guanine N2, 5.4 +/- 0.1 Dox per strand)
GGTGGTGGTGGTTGTGGTGGTGGTGG [AS1411 (AGRO100)]	54.8 nM	–
GGTGGTGGTGGTTGTGGTGGTGGTGG [AS1411-Dox adduct]	–	57.3 nM
